Consider eleven variants from IntAct's records for PubMed 31515488.

B1: SHC-transforming protein 1 (Homo sapiens), P29353 (parent)
chain: MDLLPPKPKYNPLRNESLSSLEEGASGSTPPEELPSPSASSLGPILPPLPGDDSPTTLCSFFPRMSNLRLANPAGGRPGSKGEPGRAADDGEGIVGAAMPDSGPLPLLQDMNKLSGGGGRRTRVEGGQLGGEEWTRHGSFVNKPTRGWLHPNDKVMGPGVSYLVRYMGCVEVLQSMRALDFNTRTQVTREAISLVCEAVPGAKGATRRRKPCSRPLSSILGRSNLKFAGMPITLTVSTSSLNLMAADCKQIIANHHMQSISFASGGDPDTAEYVAYVAKDPVNQRACHILECPEGLAQDVISTIGQAFELRFKQYLRNPPKLVTPHDRMAGFDGSAWDEEEEEPPDHQYYNDFPGKEPPLGGVVDMRLREGAAPGAARPTAPNAQTPSHLGATLPVGQPVGGDPEVRKQMPPPPPCPGRELFDDPSYVNVQNLDKARQAVGGAGPPNPAINGSAPRDLFDMKPFEDALRVPPPPQSVSMAEQLRGEPWFHGKLSRREAEALLQLNGDFLVRESTTTPGQYVLTGLQSGQPKHLLLVDPEGVVRTKDHRFESVSHLISYHMDNHLPIISAGSELCLQQPVERKL
partner: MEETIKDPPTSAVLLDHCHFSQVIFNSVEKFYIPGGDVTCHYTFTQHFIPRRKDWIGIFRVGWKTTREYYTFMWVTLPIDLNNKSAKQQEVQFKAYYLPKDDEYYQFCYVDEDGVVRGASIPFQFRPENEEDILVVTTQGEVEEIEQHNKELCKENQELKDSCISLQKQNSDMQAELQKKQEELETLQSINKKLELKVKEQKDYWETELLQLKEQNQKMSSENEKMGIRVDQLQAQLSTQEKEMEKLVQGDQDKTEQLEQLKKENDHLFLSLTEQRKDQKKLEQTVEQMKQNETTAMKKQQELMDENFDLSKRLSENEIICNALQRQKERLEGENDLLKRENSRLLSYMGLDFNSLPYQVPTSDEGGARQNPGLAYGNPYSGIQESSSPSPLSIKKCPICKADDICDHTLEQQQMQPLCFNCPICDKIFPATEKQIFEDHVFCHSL
B2: Tuftelin-interacting protein 11 (Homo sapiens), Q9UBB9 (parent)
chain: MSLSHLYRDGEGRIDDDDDERENFEITDWDLQNEFNPNRQRHWQTKEEATYGVWAERDSDDERPSFGGKRARDYSAPVNFISAGLKKGAAEEAELEDSDDEEKPVKQDDFPKDFGPRKLKTGGNFKPSQKGFAGGTKSFMDFGSWERHTKGIGQKLLQKMGYVPGRGLGKNAQGIINPIEAKQRKGKGAVGAYGSERTTQSMQDFPVVDSEEEAEEEFQKELSQWRKDPSGSKKKPKYSYKTVEELKAKGRISKKLTAPQKELSQVKVIDMTGREQKVYYSYSQISHKHNVPDDGLPLQSQQLPQSGKEAKAPGFALPELEHNLQLLIDLTEQEIIQNDRQLQYERDMVVNLFHELEKMTEVLDHEERVISNLSKVLEMVEECERRMQPDCSNPLTLDECARIFETLQDKYYEEYRMSDRVDLAVAIVYPLMKEYFKEWDPLKDCTYGTEIISKWKSLLENDQLLSHGGQDLSADAFHRLIWEVWMPFVRNIVTQWQPRNCDPMVDFLDSWVHIIPVWILDNILDQLIFPKLQKEVENWNPLTDTVPIHSWIHPWLPLMQARLEPLYSPIRSKLSSALQKWHPSDSSAKLILQPWKDVFTPGSWEAFMVKNIVPKLGMCLGELVINPHQQHMDAFYWVIDWEGMISVSSLVGLLEKHFFPKWLQVLCSWLSNSPNYEEITKWYLGWKSMFSDQVLAHPSVKDKFNEALDIMNRAVSSNVGAYMQPGARENIAYLTHTERRKDFQYEAMQERREAENMAQRGIGVAASSVPMNFKDLIETKAEEHNIVFMPVIGKRHEGKQLYTFGRIVIYIDRGVVFVQGEKTWVPTSLQSLIDMAK
partner: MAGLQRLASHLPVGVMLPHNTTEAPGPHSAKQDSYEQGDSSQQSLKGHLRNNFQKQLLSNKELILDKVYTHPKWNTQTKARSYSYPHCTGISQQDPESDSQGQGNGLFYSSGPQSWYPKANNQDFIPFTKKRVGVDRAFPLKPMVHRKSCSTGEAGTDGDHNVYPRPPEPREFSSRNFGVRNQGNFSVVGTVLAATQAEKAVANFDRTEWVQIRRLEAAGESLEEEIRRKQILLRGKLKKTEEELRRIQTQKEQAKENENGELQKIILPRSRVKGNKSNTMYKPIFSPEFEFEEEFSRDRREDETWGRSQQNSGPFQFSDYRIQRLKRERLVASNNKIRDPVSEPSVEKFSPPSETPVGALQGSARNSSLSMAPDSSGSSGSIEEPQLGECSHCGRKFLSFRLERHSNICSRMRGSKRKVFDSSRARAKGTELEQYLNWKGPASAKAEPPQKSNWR
B3: Microtubule-associated tumor suppressor candidate 2 (Homo sapiens), Q5JR59-3 (parent)
chain: MGHCCCKPYNCLQCLDKTNESALVKEKELSIELANIRDEVAFHTAKCEKLQKEKEELERRFEDEVKRLGWQQQAELQELEERLQLQFEAEMARLQEEHGDQLLSIRCQHQEQVEDLTASHDAALLEMENNHTVAITILQDDHDHKVQELMSTHELEKKELEENFEKLRLSLQDQVDTLTFQSQSLRDRARRFEEALRKNTEEQLEIALAPYQHLEEDMKSLKQVLEMKNQQIHEQEKKILELEKLAEKNIILEEKIQVLQQQNEDLKARIDQNTVVTRQLSEENANLQEYVEKETQEKKRLSRTNEELLWKLQTGDPTSPIKLSPTSPVYRGSSSGPSSPARVSTTPR
partner: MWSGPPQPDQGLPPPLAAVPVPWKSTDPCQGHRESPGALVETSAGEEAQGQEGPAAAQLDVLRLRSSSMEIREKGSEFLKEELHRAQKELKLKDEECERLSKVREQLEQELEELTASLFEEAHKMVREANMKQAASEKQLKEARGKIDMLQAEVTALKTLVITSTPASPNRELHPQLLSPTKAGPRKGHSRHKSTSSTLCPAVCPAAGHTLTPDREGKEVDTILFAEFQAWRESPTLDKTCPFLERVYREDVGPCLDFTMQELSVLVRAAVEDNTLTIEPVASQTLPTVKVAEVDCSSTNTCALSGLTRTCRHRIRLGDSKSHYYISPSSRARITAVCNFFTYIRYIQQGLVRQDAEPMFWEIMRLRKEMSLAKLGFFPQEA
B4: Protein LDOC1 (Homo sapiens), O95751 (parent)
chain: MVDELVLLLHALLMRHRALSIENSQLMEQLRLLVCERASLLRQVRPPSCPVPFPETFNGESSRLPEFIVQTASYMLVNENRFCNDAMKVAFLISLLTGEAEEWVVPYIEMDSPILGDYRAFLDEMKQCFGWDDDEDDDDEEEEDDY
partner: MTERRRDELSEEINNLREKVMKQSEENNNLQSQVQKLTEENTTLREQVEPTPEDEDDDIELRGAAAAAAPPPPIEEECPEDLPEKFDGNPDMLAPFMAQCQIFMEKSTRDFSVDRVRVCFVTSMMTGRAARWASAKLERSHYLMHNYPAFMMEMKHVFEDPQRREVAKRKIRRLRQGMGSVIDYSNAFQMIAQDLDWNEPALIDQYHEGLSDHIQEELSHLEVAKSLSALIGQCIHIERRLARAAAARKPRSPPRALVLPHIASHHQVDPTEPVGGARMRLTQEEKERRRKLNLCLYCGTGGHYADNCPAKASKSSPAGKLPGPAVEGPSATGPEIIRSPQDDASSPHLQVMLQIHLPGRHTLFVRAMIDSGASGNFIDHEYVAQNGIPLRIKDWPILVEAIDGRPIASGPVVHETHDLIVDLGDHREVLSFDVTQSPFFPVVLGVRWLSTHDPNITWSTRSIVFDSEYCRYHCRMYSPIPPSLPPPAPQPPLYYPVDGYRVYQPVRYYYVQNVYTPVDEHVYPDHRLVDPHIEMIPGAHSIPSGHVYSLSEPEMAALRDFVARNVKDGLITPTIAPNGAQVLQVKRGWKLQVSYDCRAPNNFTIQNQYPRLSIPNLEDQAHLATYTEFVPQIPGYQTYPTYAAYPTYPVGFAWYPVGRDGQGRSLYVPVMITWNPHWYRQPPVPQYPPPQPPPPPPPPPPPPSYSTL
B5: E3 ubiquitin-protein ligase TRAIP (Homo sapiens), Q9BWF2 (parent)
chain: MPIRALCTICSDFFDHSRDVAAIHCGHTFHLQCLIQWFETAPSRTCPQCRIQVGKRTIINKLFFDLAQEEENVLDAEFLKNELDNVRAQLSQKDKEKRDSQVIIDTLRDTLEERNATVVSLQQALGKAEMLCSTLKKQMKYLEQQQDETKQAQEEARRLRSKMKTMEQIELLLQSQRPEVEEMIRDMGVGQSAVEQLAVYCVSLKKEYENLKEARKASGEVADKLRKDLFSSRSKLQTVYSELDQAKLELKSAQKDLQSADKEIMSLKKKLTMLQETLNLPPVASETVDRLVLESPAPVEVNLKLRRPSFRDDIDLNATFDVDTPPARPSSSQHGYYEKLCLEKSHSPIQDVPKKICKGPRKESQLSLGGQSCAGEPDEELVGAFPIFVRNAILGQKQPKRPRSESSCSKDVVRTGFDGLGGRTKFIQPTDTVMIRPLPVKPKTKVKQRVRVKTVPSLFQAKLDTFLWS
B6: Zinc finger protein Aiolos (Homo sapiens), Q9UKT9 (parent)
chain: MEDIQTNAELKSTQEQSVPAESAAVLNDYSLTKSHEMENVDSGEGPANEDEDIGDDSMKVKDEYSERDENVLKSEPMGNAEEPEIPYSYSREYNEYENIKLERHVVSFDSSRPTSGKMNCDVCGLSCISFNVLMVHKRSHTGERPFQCNQCGASFTQKGNLLRHIKLHTGEKPFKCHLCNYACQRRDALTGHLRTHSVEKPYKCEFCGRSYKQRSSLEEHKERCRTFLQSTDPGDTASAEARHIKAEMGSERALVLDRLASNVAKRKSSMPQKFIGEKRHCFDVNYNSSYMYEKESELIQTRMMDQAINNAISYLGAEALRPLVQTPPAPTSEMVPVISSMYPIALTRAEMSNGAPQELEKKSIHLPEKSVPSERGLSPNNSGHDSTDTDSNHEERQNHIYQQNHMVLSRARNGMPLLKEVPRSYELLKPPPICPRDSVKVINKEGEVMDVYRCDHCRVLFLDYVMFTIHMGCHGFRDPFECNMCGYRSHDRYEFSSHIARGEHRALLK
partner: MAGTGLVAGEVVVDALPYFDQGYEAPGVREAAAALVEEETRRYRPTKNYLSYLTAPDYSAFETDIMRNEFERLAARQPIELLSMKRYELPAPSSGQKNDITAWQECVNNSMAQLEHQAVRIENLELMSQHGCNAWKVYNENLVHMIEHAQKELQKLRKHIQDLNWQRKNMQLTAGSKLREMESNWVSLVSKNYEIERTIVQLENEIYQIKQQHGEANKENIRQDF
B7: Protein BEX5 (Homo sapiens), Q5H9J7 (parent)
chain: MENVPKENKVVEKAPVQNEAPALGGGEYQEPGGNVKGVWAPPAPGFGEDVPNRLVDNIDMIDGDGDDMERFMEEMRELRRKIRELQLRYSLRILIGDPPHHDHHDEFCLMP
B8: Tuftelin-interacting protein 11 (Homo sapiens), Q9UBB9 (parent)
chain: B2 chain
partner: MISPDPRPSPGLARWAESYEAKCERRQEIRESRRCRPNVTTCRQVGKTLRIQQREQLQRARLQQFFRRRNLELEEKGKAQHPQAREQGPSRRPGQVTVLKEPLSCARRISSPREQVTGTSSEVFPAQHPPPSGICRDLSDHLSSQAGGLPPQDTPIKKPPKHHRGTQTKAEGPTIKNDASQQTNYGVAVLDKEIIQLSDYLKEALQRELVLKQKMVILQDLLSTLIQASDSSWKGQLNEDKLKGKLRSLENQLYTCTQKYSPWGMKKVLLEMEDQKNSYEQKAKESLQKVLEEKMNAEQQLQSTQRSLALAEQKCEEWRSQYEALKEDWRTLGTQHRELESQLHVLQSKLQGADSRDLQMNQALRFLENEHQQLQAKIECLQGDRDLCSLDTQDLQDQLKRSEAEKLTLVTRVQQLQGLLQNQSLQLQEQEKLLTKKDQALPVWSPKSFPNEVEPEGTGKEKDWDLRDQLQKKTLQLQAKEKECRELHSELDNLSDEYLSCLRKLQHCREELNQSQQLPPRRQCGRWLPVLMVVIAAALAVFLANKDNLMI

Variants of B1 are the subject of the first test. As to conditions: with caco2_human CALCOCO2, Q13137.
M410V: the “effect of a mutation on the interaction” value is recorded as “with no effect”.
The same measure, in the same setting: for R369Q the value was “with no effect”.

In a further test the parent is B2. As to conditions: with zc21c_human ZC2HC1C.
Consider S688L, for which the “effect of a mutation on the interaction” value was “with no effect”.
With R8Q, the “effect of a mutation on the interaction” value is listed as “with no effect”.

The variants in another test derive from B3. The note with it: with RAB3IL1, Q8TBN0.
For A89V, the “effect of a mutation on the interaction” value is given as “with no effect”.

Another test covers variants of B4. The note with it: with peg10_human PEG10, Q86TG7.
L12H: the “effect of a mutation on the interaction” value was “with no effect”.

A further test covers variants of B5. The note with it: with mare2_human MAPRE2, Q15555.
mare2_human MAPRE2, Q15555, sequence (Q15555 whole entry): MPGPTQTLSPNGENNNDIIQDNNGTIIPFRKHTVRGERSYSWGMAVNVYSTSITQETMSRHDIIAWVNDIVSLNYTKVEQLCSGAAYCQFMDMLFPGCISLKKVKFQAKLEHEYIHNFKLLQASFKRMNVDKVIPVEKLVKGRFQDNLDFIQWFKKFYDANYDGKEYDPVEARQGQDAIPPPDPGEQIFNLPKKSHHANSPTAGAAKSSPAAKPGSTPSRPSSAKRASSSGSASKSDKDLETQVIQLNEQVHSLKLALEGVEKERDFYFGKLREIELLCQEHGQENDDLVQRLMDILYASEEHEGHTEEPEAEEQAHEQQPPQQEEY
For the variant Q428H, the “effect of a mutation on the interaction” value is given as “with no effect”.

The variants in the next test derive from B6. The note with it: with spf27_human BCAS2, O75934.
With N119D, the “effect of a mutation on the interaction” value was “with no effect”.
A24V: the “effect of a mutation on the interaction” value was “with no effect”.

In another test the parent is B7. The note with it: with emil1_human EMILIN1, Q9Y6C2.
emil1_human EMILIN1, Q9Y6C2, sequence (Q9Y6C2 whole entry): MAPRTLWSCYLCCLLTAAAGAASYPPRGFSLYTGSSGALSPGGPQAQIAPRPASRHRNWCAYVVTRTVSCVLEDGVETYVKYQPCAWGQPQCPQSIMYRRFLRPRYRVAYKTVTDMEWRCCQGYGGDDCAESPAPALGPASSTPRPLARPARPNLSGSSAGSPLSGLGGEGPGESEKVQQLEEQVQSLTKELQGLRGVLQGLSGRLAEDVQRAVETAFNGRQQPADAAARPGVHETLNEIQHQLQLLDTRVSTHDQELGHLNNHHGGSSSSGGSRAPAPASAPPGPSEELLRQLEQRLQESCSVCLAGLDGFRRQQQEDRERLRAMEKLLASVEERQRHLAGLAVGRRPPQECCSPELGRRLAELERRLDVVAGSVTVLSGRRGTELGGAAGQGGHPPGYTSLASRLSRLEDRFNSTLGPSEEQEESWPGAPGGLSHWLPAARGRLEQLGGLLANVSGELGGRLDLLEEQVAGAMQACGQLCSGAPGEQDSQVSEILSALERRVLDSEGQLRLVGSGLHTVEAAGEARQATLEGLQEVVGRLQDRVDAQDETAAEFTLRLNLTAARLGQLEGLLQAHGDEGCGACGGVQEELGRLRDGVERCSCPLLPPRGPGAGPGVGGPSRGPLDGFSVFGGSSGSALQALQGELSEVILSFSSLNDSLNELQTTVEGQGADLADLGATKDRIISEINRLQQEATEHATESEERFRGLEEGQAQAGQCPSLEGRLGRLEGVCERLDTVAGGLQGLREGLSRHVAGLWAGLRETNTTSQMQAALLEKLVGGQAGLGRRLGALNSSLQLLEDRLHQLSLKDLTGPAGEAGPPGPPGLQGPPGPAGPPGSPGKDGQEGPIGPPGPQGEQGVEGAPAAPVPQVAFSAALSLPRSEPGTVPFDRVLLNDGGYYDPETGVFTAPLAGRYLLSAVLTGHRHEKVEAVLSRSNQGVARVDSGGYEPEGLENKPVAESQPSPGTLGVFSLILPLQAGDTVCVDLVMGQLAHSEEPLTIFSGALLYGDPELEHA
In the case of E74D, the “effect of a mutation on the interaction” value is “disrupting interaction strength”.

The variants in another test derive from B8. As to conditions: with TRAF3IP3, Q9Y228.
Regarding M140V, the “effect of a mutation on the interaction” value is recorded as “with no effect”.
